Target: human TNFR2 (tumor necrosis factor receptor 2) (human) (UniProt P20333)
Assay: surface plasmon resonance (Pioneer SensiQ)

UniProt P20333, sequence (P20333 23-257 S98P/S102P limits assumed): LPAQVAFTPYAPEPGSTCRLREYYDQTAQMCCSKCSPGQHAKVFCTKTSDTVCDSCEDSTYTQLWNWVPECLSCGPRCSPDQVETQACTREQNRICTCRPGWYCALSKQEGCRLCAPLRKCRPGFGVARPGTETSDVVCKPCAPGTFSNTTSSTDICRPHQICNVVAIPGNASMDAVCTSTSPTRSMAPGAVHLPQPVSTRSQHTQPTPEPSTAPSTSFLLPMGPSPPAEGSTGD

Clone MAB726 (R&D Systems, Inc.) (antibody)
Kd: 0.621 nM

From patent US20200368282A1
